{
  "source": "patent US20130236470A1",
  "about": "(JUNTENDO EDUCATINAL FOUNDATION, published 2013)",
  "binders": {"B1": {"name": "4713 mAb (antibody, mouse IgG1, V domains shown)", "VH": "DVQLQESGPGLVKPSQSLSLTCTVTGYSITNDYAWNWIRQFPGNKLEWMGYISYNDFTYYNPSLKSRISITRDTSKNQFFLQLNSVTAEDTATYYCVSERLRLVNHVMDYWGQGTSVIVSS", "VL": "QIVLTQSPPIMSASPGEKVTMTCSASSSVNYMHWHQQKSGTSPKKWIYDTSKLISGVPARFSGSGSGTSYSLTISSVEAEDAATYYCQQWSSYPFTFGSGTKLEIK", "modifications": "Used biotinylated on the SPOTs membranes; the site is not given.", "notes": "also called monoclonal antibody of the present invention"}},
  "key": {"[1]": {"biological_target": "T1, peptide sequence WNSQKDILEQKRG of the HLA-DR β-chain (human)", "T1 construct": "on the microarray as overlapping 8- to 12-mers", "T1 peptide": "WNSQKDILEQKRG", "test": "peptide microarray of overlapping HLA-DR52 β chain peptides", "description": "(§1) Overlapping peptides consisting of 8 to 12 amino acids shifted by one amino acid were chemically synthesized from their C termini on an array using the amino acid sequence of an HLA-DR52 β chain having the highest homology as a result of analysis using software Mascot (Shimadzu Techno-Research, Inc.) to prepare a peptide microarray (LC Sciences, LLC, Texas, US). First, the array was blocked by immersion overnight at 4° C. in a SuperBlock (pH 7.0) (Pierce Biotechnology Inc.) solution containing 0.05% Tween-20 to prevent nonspecific antibody binding. […] The array was washed with the washing solution for 20 minutes and then incubated at 25° C. for 1 hour in a 10 ng/mL Cy5-labeled goat anti-mouse IgG antibody solution. Cy5 was assayed at a wavelength of 635 nm using a microarray scanner (PMT 700 V). Since nonspecific binding to a peptide sequence having a C-terminal tryptophan residue was observed, this sequence was omitted and peptide sequences showing specific binding were then analyzed. […] A peptide sequence ([…]: SEQ ID NO: 2) of the HLA-DR β-chain to which an antibody described in WO2003/033538 bind is located 6 amino acid residues before the second N-terminal cysteine residue."}, "#25": {"biological_target": "T2, #25 (human)", "T2 peptide": "WNSQKDFLERRRA", "test": "SPOTs peptide membrane (HLA-DR epitope peptide library)"}, "#34": {"biological_target": "T3, #34 (human)", "T3 peptide": "WNSQKDLLEQRRA", "test": "SPOTs peptide membrane (HLA-DR epitope peptide library)"}, "#38": {"biological_target": "T4, #38 (human)", "T4 peptide": "WNSQKDLLERRRA", "test": "SPOTs peptide membrane (HLA-DR epitope peptide library)"}, "DR12-2": {"biological_target": "T5, DR12-2 (human)", "T5 construct": "HLA-DR12 overlapping peptide on SPOTs membrane", "T5 peptide": "SSLAALTVTLMVLSS", "test": "SPOTs peptide membrane, biotinylated 4713 antibody 1 µg/mL", "description": "(§2) In order to reconfirm the results obtained using the peptide microarray, HLA-DR expressed by L428 cells was analyzed. […] Next, overlapping peptides were synthesized from the amino acid sequence of HLA-DR12 to prepare a custom SPOTs nitrocellulose membrane (Sigma-Aldrich Corp.). The membrane was rinsed with methanol for 5 minutes, then washed with a […] (TBS), and incubated at room temperature for 2 hours for blocking. […] The membrane was washed and then incubated for 2 hours in a solution of peroxidase (HRP)-labeled streptavidin (manufactured by Dako Japan Inc.) diluted 3000-fold with TBS. After washing, positive spots were detected using ECL Prime Western Blotting Detection kit (manufactured by GE Healthcare Japan Corp.) and a chemiluminescence detector (LAS-4000) (Table 3). As a result, the most strongly reacted peptide was DR12-26, followed by DR12-6 and DR12-13. […] Although an HLA-DR12-derived peptide to which the antibody described in WO2003/033538 binds was also arrayed as DR12-28, no binding was seen (Table 3)."}, "DR12-3": {"biological_target": "T6, DR12-3 (human)", "T6 construct": "HLA-DR12 overlapping peptide on SPOTs membrane", "T6 peptide": "LMVLSSRLAFAGDTR", "test": "SPOTs peptide membrane, biotinylated 4713 antibody 1 µg/mL", "description": "as §2"}, "DR12-4": {"biological_target": "T7, DR12-4 (human)", "T7 construct": "HLA-DR12 overlapping peptide on SPOTs membrane", "T7 peptide": "FAGDTRPRFLEYSTG", "test": "SPOTs peptide membrane, biotinylated 4713 antibody 1 µg/mL", "description": "as §2"}, "DR12-6": {"biological_target": "T8, DR12-6 (human)", "T8 peptide": "FFNGTERVRLLERHF", "test": "SPOTs peptide membrane, biotinylated 4713 antibody 1 µg/mL", "description": "as §2"}, "DR12-7": {"biological_target": "T9, DR12-7 (human)", "T9 construct": "HLA-DR12 overlapping peptide on SPOTs membrane", "T9 peptide": "LLERHFHNQEELLRF", "test": "SPOTs peptide membrane, biotinylated 4713 antibody 1 µg/mL", "description": "as §2"}, "DR12-13": {"biological_target": "T10, DR12-13 (human)", "T10 construct": "HLA-DR12 overlapping peptide on SPOTs membrane; also called DR-13", "T10 peptide": "RHNYGAVESFTVQRR", "test": "SPOTs peptide membrane, biotinylated 4713 antibody 1 µg/mL", "description": "as §2"}, "DR12-14": {"biological_target": "T11, DR12-14 (human)", "T11 construct": "HLA-DR12 overlapping peptide on SPOTs membrane", "T11 peptide": "FTVQRRVHPKVTVYP", "test": "SPOTs peptide membrane, biotinylated 4713 antibody 1 µg/mL", "description": "as §2"}, "DR12-15": {"biological_target": "T12, DR12-15 (human)", "T12 construct": "HLA-DR12 overlapping peptide on SPOTs membrane", "T12 peptide": "KVTVYPSKTQPLQHH", "test": "SPOTs peptide membrane, biotinylated 4713 antibody 1 µg/mL", "description": "as §2"}, "DR12-17": {"biological_target": "T13, DR12-17 (human)", "T13 construct": "HLA-DR12 overlapping peptide on SPOTs membrane", "T13 peptide": "VCSVSGFYPGSIEVR", "test": "SPOTs peptide membrane, biotinylated 4713 antibody 1 µg/mL", "description": "as §2"}, "DR12-25": {"biological_target": "T14, DR12-25 (human)", "T14 construct": "HLA-DR12 overlapping peptide on SPOTs membrane", "T14 peptide": "WRARSESAQSK", "test": "SPOTs peptide membrane, biotinylated 4713 antibody 1 µg/mL", "description": "as §2"}, "DR12-26": {"biological_target": "T15, DR12-26 (human)", "T15 construct": "HLA-DR12 peptide on SPOTs membrane; also called DR-26", "T15 peptide": "RNQKGHSGLQPRGFLS", "test": "SPOTs peptide membrane, biotinylated 4713 antibody 1 µg/mL", "description": "as §2"}, "TRAIL death receptor DR4": {"biological_target": "T16, TRAIL death receptor DR4 (UniProt O00220 24-468, limits assumed)", "T16 construct": "whole, on cells; also called DR4 receptor", "T16 sequence (looked up)": "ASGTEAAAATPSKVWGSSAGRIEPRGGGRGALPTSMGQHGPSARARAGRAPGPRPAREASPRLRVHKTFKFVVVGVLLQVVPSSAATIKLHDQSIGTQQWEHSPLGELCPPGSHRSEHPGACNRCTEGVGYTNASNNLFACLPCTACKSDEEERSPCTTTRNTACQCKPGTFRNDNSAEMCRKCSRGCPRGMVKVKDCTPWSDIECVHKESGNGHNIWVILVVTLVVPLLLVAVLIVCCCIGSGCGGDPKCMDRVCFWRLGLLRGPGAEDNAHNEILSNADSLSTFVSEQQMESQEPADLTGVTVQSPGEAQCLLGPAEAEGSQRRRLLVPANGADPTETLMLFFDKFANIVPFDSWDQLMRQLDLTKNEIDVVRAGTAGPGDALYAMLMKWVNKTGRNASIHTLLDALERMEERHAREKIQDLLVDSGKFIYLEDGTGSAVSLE", "test": "flow cytometry on BHK cells transfected with the DR4 receptor gene", "description": "(§3) Hamster-derived BHK cells transfected with the DR4 receptor or DR5 receptor gene were incubated with the antibody of the present invention for 1 hour and analyzed by flow cytometry in the same way as in Example 6.\n(§4) In order to confirm whether the antibody of the present invention targets a TNF-related apoptosis inducing ligand (TRAIL) death receptor DR4 or DR5 known as a death receptor (cell death-inducing antigen), the antibody of the present invention was examined for its ability to stain hamster-derived BHK cells transfected with the DR4 receptor or DR5 receptor gene in the same way as above. As a result, the cells were stained by a known antibody against DR4 receptor or DR5 receptor (red line), but not stained by the antibody of the present invention (FIG. 9)."}, "TRAIL death receptor DR5": {"biological_target": "T17, TRAIL death receptor DR5 (UniProt O14763 56-440, limits assumed)", "T17 construct": "whole, on cells; also called DR5 receptor", "test": "flow cytometry on BHK cells transfected with the DR5 receptor gene", "description": "as §3, §4"}, "[2]": {"biological_target": "T18, HLA-DR expressed by L428 cells (human)", "T18 construct": "whole, on cells; The assay is on L428 cells; also called HLA-DR12; HLA-DR on L428 cells", "test": "flow cytometry on L428 cells, serially diluted antibody; reference LN3", "description": "The ability of each antibody to bind to L428 cells was analyzed by incubation with each of serially diluted antibody solutions using a flow cytometer. […] For cell death induction, the uptake of propidium iodide (PI) was analyzed using a flow cytometer."}, "peptide CRHNYGVGESFT": {"biological_target": "T19, peptide CRHNYGVGESFT (human)", "T19 construct": "Region of the HLA-DR52 β chain on the peptide microarray (overlapping 8- to 12-mers)", "T19 peptide": "CRHNYGVGESFT", "test": "peptide microarray of overlapping HLA-DR52 β chain peptides, 5 µg/mL 4713 mAb", "description": "as §1"}},
  "data": [
    {"binder": "B1", "values": [
      {"measurement": "binding result", "setting": "[1]", "result": "no binding (tested: 5 µg/mL)"},
      {"measurement": "binding result", "setting": "#25", "result": "binds"},
      {"measurement": "binding result", "setting": "#34", "result": "binds"},
      {"measurement": "binding result", "setting": "#38", "result": "binds"},
      {"measurement": "binding result", "setting": "DR12-2", "result": "binds"},
      {"measurement": "binding result", "setting": "DR12-3", "result": "binds"},
      {"measurement": "binding result", "setting": "DR12-4", "result": "binds"},
      {"measurement": "binding result", "setting": "DR12-6", "result": "binds"},
      {"measurement": "binding result", "setting": "DR12-7", "result": "binds"},
      {"measurement": "binding result", "setting": "DR12-13", "result": "binds"},
      {"measurement": "binding result", "setting": "DR12-14", "result": "binds"},
      {"measurement": "binding result", "setting": "DR12-15", "result": "binds"},
      {"measurement": "binding result", "setting": "DR12-17", "result": "binds"},
      {"measurement": "binding result", "setting": "DR12-25", "result": "binds"},
      {"measurement": "binding result", "setting": "DR12-26", "result": "binds"},
      {"measurement": "binding result", "setting": "TRAIL death receptor DR4", "result": "no binding"},
      {"measurement": "binding result", "setting": "TRAIL death receptor DR5", "result": "no binding"},
      {"measurement": "fold lower concentration for binding than LN3", "setting": "[2]", "result": "~10", "unit": "times"},
      {"measurement": "binding result", "setting": "peptide CRHNYGVGESFT", "result": "binds"}
    ]}
  ]
}
